This is an account of results in publication PMC3495302, “The putative K^+ channel subunit AtKCO3 forms stable dimers in Arabidopsis” (Frontiers in Plant Science, 2012).

What is called stoichiometry N is the number of molecules, sites or subunits per partner or assembly.

The chains are these.
B1: γTIP (natural protein, UniProt P25818 1-251, looked up)
chain: MPIRNIAIGRPDEATRPDALKAALAEFISTLIFVVAGSGSGMAFNKLTENGATTPSGLVAAAVAHAFGLFVAVSVGANISGGHVNPAVTFGAFIGGNITLLRGILYWIAQLLGSVVACLILKFATGGLAVPAFGLSAGVGVLNAFVFEIVMTFGLVYTVYATAIDPKNGSLGTIAPIAIGFIVGANILAGGAFSGASMNPAVAFGPAVVSWTWTNHWVYWAGPLVGGGIAGLIYEVFFINTTHEQLPTTDY
notes: gamma-TIP, tonoplast aquaporin of Arabidopsis; detected with an antibody against its C-terminal nine amino acids; also called tonoplast aquaporin γTIP; source: endogenous, Arabidopsis leaf homogenate or microsomes
B2: AtKCO3::GFP (natural protein, Arabidopsis thaliana, UniProt Q9XFR0 1-260, looked up)
chain: MPMTPSEFKNRLLFGSLPRSSSDPTDLQFTEPNVPPSLFSLPEHNDDTATDMAPDQETEQSVSKSIARQALALLVVYLSLGVLIYWLTLDSDNAYQTHPVAVALYFFVVTFCGFLIVHFVVKIGWLDSFCFSVMMVTTVGFGDRAFNTWLGTFLAAVWLLVSTLAVARAFLFLADARADKRNRERAKKVLGESISISQFFAADIDNDGRLSLAEFAIYKLKQMEKITQEDFIQICNQFDKLDRTQSGRITLVDLTTATSV
notes: AtKCO3 of Arabidopsis thaliana, locus AT5G46360; fusion of about 60 kDa; Made with pBI-35S-10H-GFP-JFH1 (Hong et al., 1999); the vector's name may mean further tag residues (surmise); source: transgenic Arabidopsis (CaMV 35S promoter, p35S-KCO3::GFP), in leaf homogenate; not shown: GFP, C-terminal, kept
B3: AtKCO3 (natural protein, Arabidopsis thaliana, UniProt Q9XFR0 1-260, looked up)
chain: MPMTPSEFKNRLLFGSLPRSSSDPTDLQFTEPNVPPSLFSLPEHNDDTATDMAPDQETEQSVSKSIARQALALLVVYLSLGVLIYWLTLDSDNAYQTHPVAVALYFFVVTFCGFLIVHFVVKIGWLDSFCFSVMMVTTVGFGDRAFNTWLGTFLAAVWLLVSTLAVARAFLFLADARADKRNRERAKKVLGESISISQFFAADIDNDGRLSLAEFAIYKLKQMEKITQEDFIQICNQFDKLDRTQSGRITLVDLTTATSV
notes: AtKCO3, putative one-pore K+ channel subunit of Arabidopsis thaliana, locus AT5G46360; cDNA from seedlings of ecotype C24; calculated mass 29 kDa; The AtKCO3 cDNA without tag was put into pBinAR-Kan; also called wild-type protein; source: transgenic Arabidopsis (CaMV 35S promoter, p35S-KCO3), in leaf homogenate

The data set concerns the molecule itself. As to the kind of experiment: velocity sucrose gradient centrifugation; leaf homogenate in 200 mM NaCl, 0.2% Triton X-100, 50 mM Tris-Cl pH 7.8; linear 5-25% sucrose gradient with 150 mM NaCl, 0.1% Triton X-100, 200,000 x g, 25 h, 4°C; fractions by SDS-PAGE and western blot; mass markers in a further gradient. A general note: In western blotting, separated proteins are transferred to a membrane and probed.
Take B1: the “stoichiometry N” value worked out at 4.

Take B2: the “stoichiometry N” value is 2.

Regarding B3, the “stoichiometry N” value came out at 2.
